Measured values published in patent US20250361312A1 (INVOX PHARMA, published 2025).

Tests used:
Assay in all cases: SPR (Biacore T200), receptor on CM5 chip
human TNFRI = target: T1, human TNFRI (human, UniProt P19438 30-211, limits assumed)
T1 construct: Amine-coupled to a CM5 chip
T1 sequence (looked up): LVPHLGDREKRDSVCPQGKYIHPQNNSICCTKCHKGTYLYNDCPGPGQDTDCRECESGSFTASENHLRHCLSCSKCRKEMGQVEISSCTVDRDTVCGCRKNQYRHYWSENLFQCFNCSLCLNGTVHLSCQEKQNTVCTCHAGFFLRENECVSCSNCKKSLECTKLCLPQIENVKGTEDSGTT

human TNFRII = target: T2, human TNFRII (human, UniProt P20333 23-257, limits assumed)
T2 construct: Amine-coupled to a CM5 chip
T2 sequence (looked up): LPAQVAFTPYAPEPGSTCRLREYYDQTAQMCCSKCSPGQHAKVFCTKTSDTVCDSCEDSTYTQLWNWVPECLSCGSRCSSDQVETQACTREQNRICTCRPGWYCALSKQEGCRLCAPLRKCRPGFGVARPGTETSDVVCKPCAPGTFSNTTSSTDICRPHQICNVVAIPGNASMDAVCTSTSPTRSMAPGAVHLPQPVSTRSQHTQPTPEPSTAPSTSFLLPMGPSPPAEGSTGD

human NGFR = target: T3, human NGFR (human, UniProt P08138 29-250, limits assumed)
T3 construct: Amine-coupled to a CM5 chip
T3 sequence (looked up): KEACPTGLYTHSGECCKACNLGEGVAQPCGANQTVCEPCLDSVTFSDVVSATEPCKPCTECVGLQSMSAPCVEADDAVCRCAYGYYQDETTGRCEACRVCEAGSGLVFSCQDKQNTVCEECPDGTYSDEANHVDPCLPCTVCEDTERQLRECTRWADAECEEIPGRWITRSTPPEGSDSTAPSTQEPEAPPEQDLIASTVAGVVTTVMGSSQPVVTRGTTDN

human CD137 = target: T4, human CD137 (human, UniProt Q07011 24-186, limits assumed)
T4 construct: Amine-coupled to a CM5 chip; also called 4-1BB

human CD40 = target: T5, human CD40 (human, UniProt P25942 21-193, limits assumed)
T5 construct: Amine-coupled to a CM5 chip

Measured: binding result

T5 sequence (P25942 21-193 limits assumed): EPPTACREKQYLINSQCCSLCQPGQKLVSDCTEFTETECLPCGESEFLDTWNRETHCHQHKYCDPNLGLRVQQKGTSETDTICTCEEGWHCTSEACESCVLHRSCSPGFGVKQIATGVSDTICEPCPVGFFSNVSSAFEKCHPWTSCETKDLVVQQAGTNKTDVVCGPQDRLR

B1: FS20-11-134AA/4420 (bispecific antibody, human IgG1, kappa, L234A L235A)
heavy: EVKLDETGGGLVQPGRPMKLSCVASGFTFSDYWMNWVRQSPEKGLEWVAQIRNKPYNYETYYSDSVKGRFTISRDDSKSSVYLQMNNLRVEDMGIYYCTGSYYGMDYWGQGTSVTVSSASTKGPSVFPLAPSSKSTSGGTAALGCLVKDYFPEPVTVSWNSGALTSGVHTFPAVLQSSGLYSLSSVVTVPSSSLGTQTYICNVNHKPSNTKVDKKVEPKSCDKTHTCPPCPAPEAAGGPSVFLFPPKPKDTLMISRTPEVTCVVVDVSHEDPEVKFNWYVDGVEVHNAKTKPREEQYNSTYRVVSVLTVLHQDWLNGKEYKCKVSNKALPAPIEKTISKAKGQPREPQVYTLPPSREEDDNDVSLTCLVKGFYPSDIAVEWESNGIPIGPYKTTPPVLDSDGSFFLYSKLTVDKSRWWKHYVEEHPFLCSVMHEALHNHYTQKSLSLSPG
light: DVVMTQTPLSLPVSLGDQASISCRSSQSLVHSNGNTYLRWYLQKPGQSPKVLIYKVSNRFSGVPDRFSGSGSGTDFTLKISRVEAEDLGVYFCSQSTHVPWTFGGGTKLEIKRTVAAPSVFIFPPSDEQLKSGTASVVCLLNNFYPREAKVQWKVDNALQSGNSQESVTEQDSKDSTYSLSSTLTLSKADYEKHKVYACEVTHQGLSSPVTKSFNRGEC
notes: Human IgG1 with anti-FITC 4420 Fab and LALA; The OX40 site is in the CH3 domain; also called FS20-11-134 Fcab in mock (4420 LALA) mAb^2 format
no binding (tested: 1 µM): all assays above

B2: FS20-11-127AA/4420 (bispecific antibody, human IgG1, kappa, L234A L235A)
heavy: EVKLDETGGGLVQPGRPMKLSCVASGFTFSDYWMNWVRQSPEKGLEWVAQIRNKPYNYETYYSDSVKGRFTISRDDSKSSVYLQMNNLRVEDMGIYYCTGSYYGMDYWGQGTSVTVSSASTKGPSVFPLAPSSKSTSGGTAALGCLVKDYFPEPVTVSWNSGALTSGVHTFPAVLQSSGLYSLSSVVTVPSSSLGTQTYICNVNHKPSNTKVDKKVEPKSCDKTHTCPPCPAPEAAGGPSVFLFPPKPKDTLMISRTPEVTCVVVDVSHEDPEVKFNWYVDGVEVHNAKTKPREEQYNSTYRVVSVLTVLHQDWLNGKEYKCKVSNKALPAPIEKTISKAKGQPREPQVYTLPPSREEDDNDVSLTCLVKGFYPSDIAVEWESNGIPIGPYKTTPPVLDSDGSFFLYSKLTVDKSRWWRHYVEEHPFLCSVMHEALHNHYTQKSLSLSPG
light: DVVMTQTPLSLPVSLGDQASISCRSSQSLVHSNGNTYLRWYLQKPGQSPKVLIYKVSNRFSGVPDRFSGSGSGTDFTLKISRVEAEDLGVYFCSQSTHVPWTFGGGTKLEIKRTVAAPSVFIFPPSDEQLKSGTASVVCLLNNFYPREAKVQWKVDNALQSGNSQESVTEQDSKDSTYSLSSTLTLSKADYEKHKVYACEVTHQGLSSPVTKSFNRGEC
notes: Human IgG1 with anti-FITC 4420 Fab and LALA; The OX40 site is in the CH3 domain
no binding (tested: 1 µM): all assays above

B3: FS20-11-131AA/4420 (bispecific antibody, human IgG1, kappa, L234A L235A)
heavy: EVKLDETGGGLVQPGRPMKLSCVASGFTFSDYWMNWVRQSPEKGLEWVAQIRNKPYNYETYYSDSVKGRFTISRDDSKSSVYLQMNNLRVEDMGIYYCTGSYYGMDYWGQGTSVTVSSASTKGPSVFPLAPSSKSTSGGTAALGCLVKDYFPEPVTVSWNSGALTSGVHTFPAVLQSSGLYSLSSVVTVPSSSLGTQTYICNVNHKPSNTKVDKKVEPKSCDKTHTCPPCPAPEAAGGPSVFLFPPKPKDTLMISRTPEVTCVVVDVSHEDPEVKFNWYVDGVEVHNAKTKPREEQYNSTYRVVSVLTVLHQDWLNGKEYKCKVSNKALPAPIEKTISKAKGQPREPQVYTLPPSREEDDNDVSLTCLVKGFYPSDIAVEWESNGIPIGPYKTTPPVLDSDGSFFLYSKLTVDKNRWWKHYVDEHPFLCSVMHEALHNHYTQKSLSLSPG
light: DVVMTQTPLSLPVSLGDQASISCRSSQSLVHSNGNTYLRWYLQKPGQSPKVLIYKVSNRFSGVPDRFSGSGSGTDFTLKISRVEAEDLGVYFCSQSTHVPWTFGGGTKLEIKRTVAAPSVFIFPPSDEQLKSGTASVVCLLNNFYPREAKVQWKVDNALQSGNSQESVTEQDSKDSTYSLSSTLTLSKADYEKHKVYACEVTHQGLSSPVTKSFNRGEC
notes: Human IgG1 with anti-FITC 4420 Fab and LALA; The OX40 site is in the CH3 domain; also called FS20-11-131 Fcab in mock (4420 LALA) mAb^2 format
no binding (tested: 1 µM): all assays above

B4: FS20-22-41AA/4420 (bispecific antibody, human IgG1, kappa, L234A L235A)
heavy: EVKLDETGGGLVQPGRPMKLSCVASGFTFSDYWMNWVRQSPEKGLEWVAQIRNKPYNYETYYSDSVKGRFTISRDDSKSSVYLQMNNLRVEDMGIYYCTGSYYGMDYWGQGTSVTVSSASTKGPSVFPLAPSSKSTSGGTAALGCLVKDYFPEPVTVSWNSGALTSGVHTFPAVLQSSGLYSLSSVVTVPSSSLGTQTYICNVNHKPSNTKVDKKVEPKSCDKTHTCPPCPAPEAAGGPSVFLFPPKPKDTLMISRTPEVTCVVVDVSHEDPEVKFNWYVDGVEVHNAKTKPREEQYNSTYRVVSVLTVLHQDWLNGKEYKCKVSNKALPAPIEKTISKAKGQPREPQVYTLPPSRDEYWDQEVSLTCLVKGFYPSDIAVEWESNGDEQFAYKTTPPVLDSDGSFFLYSKLTVDQYRWNPGDYFSCSVMHEALHNHYTQKSLSLSPG
light: DVVMTQTPLSLPVSLGDQASISCRSSQSLVHSNGNTYLRWYLQKPGQSPKVLIYKVSNRFSGVPDRFSGSGSGTDFTLKISRVEAEDLGVYFCSQSTHVPWTFGGGTKLEIKRTVAAPSVFIFPPSDEQLKSGTASVVCLLNNFYPREAKVQWKVDNALQSGNSQESVTEQDSKDSTYSLSSTLTLSKADYEKHKVYACEVTHQGLSSPVTKSFNRGEC
notes: Human IgG1 with anti-FITC 4420 Fab and LALA; The OX40 site is in the CH3 domain; also called FS20-22-41 Fcab in mock (4420 LALA) mAb^2 format
no binding (tested: 1 µM): all assays above

B5: FS20-22-38AA/4420 (bispecific antibody, human IgG1, kappa, L234A L235A)
heavy: EVKLDETGGGLVQPGRPMKLSCVASGFTFSDYWMNWVRQSPEKGLEWVAQIRNKPYNYETYYSDSVKGRFTISRDDSKSSVYLQMNNLRVEDMGIYYCTGSYYGMDYWGQGTSVTVSSASTKGPSVFPLAPSSKSTSGGTAALGCLVKDYFPEPVTVSWNSGALTSGVHTFPAVLQSSGLYSLSSVVTVPSSSLGTQTYICNVNHKPSNTKVDKKVEPKSCDKTHTCPPCPAPEAAGGPSVFLFPPKPKDTLMISRTPEVTCVVVDVSHEDPEVKFNWYVDGVEVHNAKTKPREEQYNSTYRVVSVLTVLHQDWLNGKEYKCKVSNKALPAPIEKTISKAKGQPREPQVYTLPPSRDEYWDQEVSLTCLVKGFYPSDIAVEWESNGAEKYQYKTTPPVLDSDGSFFLYSKLTVDQYRWNPGDYFSCSVMHEALHNHYTQKSLSLSPG
light: DVVMTQTPLSLPVSLGDQASISCRSSQSLVHSNGNTYLRWYLQKPGQSPKVLIYKVSNRFSGVPDRFSGSGSGTDFTLKISRVEAEDLGVYFCSQSTHVPWTFGGGTKLEIKRTVAAPSVFIFPPSDEQLKSGTASVVCLLNNFYPREAKVQWKVDNALQSGNSQESVTEQDSKDSTYSLSSTLTLSKADYEKHKVYACEVTHQGLSSPVTKSFNRGEC
notes: Human IgG1 with anti-FITC 4420 Fab and LALA; The OX40 site is in the CH3 domain; also called FS20-22-38 Fcab in mock (4420 LALA) mAb^2 format
no binding (tested: 1 µM): all assays above
